Data as given in the Human Domainome abundance scans (Beltran et al. 2025).

B1: Storkhead-box protein 2, residues 64 to 141; numbered along this chain, Q9P2F5 (parent)
chain: SPISQSQFIPLGEILCLAISAMNSARKPVTQEALMEHLTTCFPGVPTPSQEILRHTLNTLVRERKIYPTPDGYFIVTP
B2: Far upstream element-binding protein 3, residues 75 to 150; numbered along this chain, Q96I24 (parent)
chain: RTVITEEFKVPDKMVGFIIGRGGEQISRIQAESGCKIQIASESSGIPERPCVLTGTPESIEQAKRLLGQIVDRCRN

Variants of: B1
Assay: abundance fitness (aPCA) (normalised: wild type 0, dead -1); higher = more abundant; growth selection in yeast, the domain comes from the species named
Conditions: Homo sapiens

Abundance fitness: each site, then its substitutions
I3: A -0.075; W -0.44; E 0.041; R -0.022; S 0.004; F -0.255; H -0.017; P -0.106; Y -0.158; T -0.024; M -0.047; Q -0.12; G -0.046; C -0.16; N -0.207; V 0.001
Q5: T 0.049; C -0.025; F -0.109; W -0.276; D -0.021; A 0.037; I -0.052; K 0.012; H -0.099; E -0.015; S -0.007; L -0.079; R -0.068; P -0.125; Y -0.055; G -0.12
S6: F -0.091; N -0.033; K -0.126; G -0.041; Q -0.069; R -0.062; M -0.123; E -0.046; D 0.027; P -0.07; V -0.171; Y -0.206; H -0.334; I -0.148; W -0.246; T -0.079
F8: L -0.135; N -0.021; M -0.102; W -0.016; D -0.027; I -0.017; T -0.08; Y -0.326; A -0.055; Q -0.196; E -0.012; R -0.059; H 0.015; C -0.104; S 0.017; K -0.137; V -0.063; G -0.103; P -0.081
I9: D -0.035; M 0.062; A 0.005; L 0.03; K 0.044; E 0.074; C 0.067; H -0.243; G 0.025
Q7: H -0.122; L -0.085; E 0.023; C -0.154; T -0.02; S 0.036; K -0.051; A 0.043; W -0.152; D -0.032; F -0.065; V -0.064; P -0.021; N -0.015; I -0.068; G 0.063
P2: C -0.15; K -0.137; L 0.046; V 0.001; R 0.019; S 0.002; G -0.095; E -0.18; A -0.084; W -0.102; D 0.124; I -0.037; H 0.051; N 0.188; M 0.013; Y 0.107; Q 0.103
S1: A -0.395; K -0.717; T -0.486; L -0.207; W -0.83; D -0.027; R -0.344; C -0.178; F -0.092; V -0.354; Y -0.122; G -0.263; E -0.581; P -0.469; H -0.103; M -0.227
S4: N -0.038; Y -0.076; I -0.079; M 0.002; H 0.008; T -0.006; P 0.007; D 0.104; G -0.17; F -0.151; A -0.098; W -0.161; L -0.026; V -0.056; R -0.155; K -0.154; C -0.013

Variants of: B2
Assay: as above
Conditions: Homo sapiens

Abundance fitness, by site and new letter:
R75: M 0.009; L -0.039; Q -0.026; V 0.008; T 0.052; W 0.007; S -0.021; N -0.126; P -0.025; K 0.043
N76: H -0.1; E -0.025; I -0.178; T -0.057; C -0.069; R 0.055; Y -0.027; A 0.036; W -0.092; M -0.008; L -0.028; K -0.183; Q -0.145; F 0.023; P 0.007
